Here are results for one substance from patent publication US20200176073A1.

The test has as its target CXCR4 cognate ligand SDF1a (or CCL12) (UniProt P48061). The experiment in a line: ELISA, water-soluble CXCR4 with CCL12 (SDF1a), assay concentrations 50 nM to 10 uM. On the technique in general: ELISA stands for enzyme-linked immunosorbent assay.

CXCR4 cognate ligand SDF1a (or CCL12), sequence (P48061 22-89 limits assumed): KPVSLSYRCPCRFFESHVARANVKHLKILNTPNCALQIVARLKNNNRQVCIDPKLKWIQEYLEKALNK

A word on the Kd: it is the equilibrium constant for the complex coming apart. The low end stands for a tighter complex, the high end for a looser complex. Take “water-soluble CXCR4-QTY protein, produced in E. coli BL21 (DE3) and purified with 1D4 rho-tag monoclonal antibody (receptor)”: the Kd came to 80 nM.
